Key:
[1] = tested on: Saccharomyces cerevisiae; assay: protein stability index of tFT-peptide fusion in wild type (PSI (0-1 scale)); higher = more stable (slower turnover); conditions: genetic background: wild type
[2] = tested on: Saccharomyces cerevisiae; assay: protein stability index of tFT-peptide fusion in deletion strain of DOA10 (PSI (0-1 scale)); higher = more stable (slower turnover)
Description: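 MPS profiling in S. cerevisiae of two library types built from selected 12-aa C-degron peptides (IN1, IN2, LN1, LN3, VN2, R1-R5, W1-W3, Atg1 and Rpa12 C-termini): saturation mutagenesis libraries and C-terminal +1 capping libraries (13 aa). Each peptide is fused to the C-terminus of a sfGFP-mCherry timer, after a GGGS linker. Cells are FACS-sorted into 8 mCherry/sfGFP bins and sequenced. PSI runs from 0 (unstable) to 1 (stable), measured once in wild type and in the das1Δ or doa10Δ background.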
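Wherever protein stability index of tFT-peptide fusion in deletion strain of DOA10 is given: PSI per variant is the weighted mean of its sequencing read distribution over the sorted stability bins, counting only variants with over 10 reads summed across bins.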
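Wherever protein stability index of tFT-peptide fusion in wild type is given: PSI derived as read-weighted mean over the 8 sorting bins, only variants exceeding 10 total reads kept, mCherry placed adjacent to the peptide and sfGFP distal.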

| Sequence | protein stability index [1] | protein stability index [2] |
| --- | --- | --- |
| RSLRVLLPLYFRS | 0.3 | 0.644 |
| RSLRVLLPLYMR | 0.326 | 0.696 |
| RSLRVLQPLYFR | 0.285 | 0.685 |
| RSLTVLLPLYFR | 0.24 | 0.662 |
| RVARLDAIYFRI | 0.449 | 0.663 |
| RVFRLDAIYFRI | 0.319 | 0.619 |
| RVTALDAIYFRI | 0.558 | 0.69 |
| RVTRFDAIYFRI | 0.287 | 0.645 |
| RVTRLDAIHFRI | 0.66 | 0.7 |
| RVTRLDAIVFRI | 0.534 | 0.693 |
| RVTRLDAIYCRI | 0.621 | 0.696 |
| RVTRLDAIYFRC | 0.431 | 0.66 |
| RVTRLDAIYFRD | 0.688 | 0.72 |
| RVTRLDAIYFRIC | 0.0626 | 0.103 |
| RVTRLDAIYFRIE | 0.627 | 0.689 |
| RVTRLDAIYFRIM | 0.0601 | 0.129 |
| RVTRLDAIYFRIN | 0.0776 | 0.125 |

| Sequence | protein stability index [1] | protein stability index [2] |
| --- | --- | --- |
| RVTRLDAIYFRM | 0.422 | 0.674 |
| RVTRLDAIYFRR | 0.653 | 0.708 |
| RVTRLDASYFRI | 0.676 | 0.715 |
| RVTRLDCIYFRI | 0.367 | 0.647 |
| RVTRLDGIYFRI | 0.389 | 0.567 |
| RVTRLDHIYFRI | 0.281 | 0.717 |
| RVTRLDSIYFRI | 0.46 | 0.703 |
| RVTRLDVIYFRI | 0.3 | 0.649 |
| RVTRLFAIYFRI | 0.177 | 0.409 |
| RVTRNDAIYFRI | 0.552 | 0.694 |
| RVTRTDAIYFRI | 0.499 | 0.704 |
| RVTRWDAIYFRI | 0.165 | 0.368 |
| RVTRYDAIYFRI | 0.332 | 0.603 |
| SVTRLDAIYFRI | 0.363 | 0.716 |
| VSLRVLLPLYFR | 0.283 | 0.611 |
| WSLRVLLPLYFR | 0.269 | 0.636 |
| WVTRLDAIYFRI | 0.161 | 0.62 |
